The values that follow come from patent US20040132045A1 (MERCK, published 2004).

The target of assay [1] is rhesus monkey MCH-2R (melanin-concentrating hormone type 2 receptor) (rhesus monkey) (UniProt Q8MJ88). Put plainly: radioligand binding to HEK293T cells expressing rhesus MCH-2R, cell-bound radioactivity.
The target is the same in assay [2]. Put plainly: radioligand binding to HEK293T cells expressing rhesus MCH-2R in the presence of 1 uM cold [Phe13, Tyr19]-MCH.
In assay [3] the target is T1, rhesus monkey MCH-2R (melanin-concentrating hormone type 2 receptor) (rhesus monkey, UniProt Q8MJ88 1-340). Put plainly: cell-based or functional assay.
For assay [4], the target named is T2, human MCH-2R (human, UniProt Q969V1 1-340).
T2 construct: Function was measured in HEK-293 aequorin cells
Put plainly: radioligand competition binding on membranes of COS-7 cells transfected with human MCH-2R; radioligand not named. How it is done: (§1) (Strader, et al., 1987. Proc. Natl. Acad. Sci. USA 84, 4384-4388). Cells were harvested after 60-72 hours. Membranes were prepared from transient and stable transfectants by hypotonic lysis, frozen in liquid nitrogen, and stored at −80° C. (MacNeil, et al., 1994. Biochem. Biophys. Res. Commun. 198, 328-334.)
(§2) A binding assay was set up in 96 well plates. Total volume per binding assay point was 200 μL. […] Dose response curves were from 10 μM in 5 fold or 3-fold dilution series for 11 points. The mixture was shaken for 5 minutes on a platform shaker, and incubated at room temperature for 1 hour. Filter plates were presoaked in 1% PEI. The binding reaction was harvested onto filters using Packard Filtermate harvester (Meriden, Conn.). The filters were then washed in 50 mM Tris pH 7.4, 10 mM MgCl₂, 2 mM EDTA, 0.04% Tween 20, 6-8 times per plate. The plates were dried for 20 minutes at 55° C. or overnight at room temperature. 30 μL microscintillant was added per well and counted for 1.5-3 minutes in inverted format on Packard TopCount.

Assay [5] concerns the target T3, ferret MCH-2R (ferret, UniProt Q969V1 1-340 (human entry)).
T3 chain: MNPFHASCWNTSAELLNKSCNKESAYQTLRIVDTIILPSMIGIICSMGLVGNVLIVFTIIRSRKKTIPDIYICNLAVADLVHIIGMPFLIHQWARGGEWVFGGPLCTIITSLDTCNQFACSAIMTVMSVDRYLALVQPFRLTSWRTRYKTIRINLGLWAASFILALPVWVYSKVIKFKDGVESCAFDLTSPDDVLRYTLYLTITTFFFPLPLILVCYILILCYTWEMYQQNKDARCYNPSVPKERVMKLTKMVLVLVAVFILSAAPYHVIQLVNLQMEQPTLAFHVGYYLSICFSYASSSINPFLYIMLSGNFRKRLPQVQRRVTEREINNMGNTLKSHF
The experiment in a line: cell-based or functional assay.

For assay [6], the target named is T2, human MCH-2R. Put plainly: cell-based or functional assay.
The target in assay [7] is T3, ferret MCH-2R. Put plainly: radioligand competition binding on membranes of COS-7 cells transfected with ferret MCH-2R; radioligand not named. On the procedure: as §1, §2
In assay [8] the target is T1, rhesus monkey MCH-2R …. The experiment in a line: displacement of 100 pM [125I]-[Phe13, Tyr19]-MCH from HEK293T cells expressing rhesus MCH-2R, filtration. On the procedure: The remaining radio activity on the filter was quantitated using a TopCount HTS (Packard instrument) with a Microscint 0 scintillation cocktail (Packard instrument). […] Data were analyzed using GraphPad Prism Version 3.0.

Where “and” joins values, the source holds several entries; their conditions need not be identical. Equal entries are not always repeated. Bridges are numbered along the chain shown (N, C = ends). Where no end group is shown, it is not given here.

T1 sequence (Q8MJ88 whole entry): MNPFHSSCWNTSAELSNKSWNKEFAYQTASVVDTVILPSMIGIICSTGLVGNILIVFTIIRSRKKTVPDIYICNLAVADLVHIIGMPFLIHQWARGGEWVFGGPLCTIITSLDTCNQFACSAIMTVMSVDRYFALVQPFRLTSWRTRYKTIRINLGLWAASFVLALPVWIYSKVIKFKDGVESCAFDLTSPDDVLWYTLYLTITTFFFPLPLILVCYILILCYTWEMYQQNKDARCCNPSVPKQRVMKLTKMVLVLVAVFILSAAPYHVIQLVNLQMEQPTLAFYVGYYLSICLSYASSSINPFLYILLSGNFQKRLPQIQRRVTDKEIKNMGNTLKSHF
Chain of rhesus monkey MCH-2R (melanin-concentrating hormone type 2 receptor) (rhesus monkey) (Q8MJ88 whole entry): as above
T2 sequence (Q969V1 whole entry): as the sequence (Q8MJ88 whole entry) above, with S6A, S16L, I84V, S143R, V163I, I170V, A258V, V324A, D326E, K330N counted along it

On to “[^125I]-[Phe^13, Tyr^19]-MCH (from UniProt P20382 147-165) (peptide)”, for which, in assay [1], the Total binding (cpm) was 18000 cpm (2×) and 18700 cpm. Besides, the Nonspecific binding (cpm) in assay [2] was 598 cpm and 567 cpm and 717 cpm.

B1: Melanin-concentrating hormone (MCH) (peptide, UniProt P20382 147-165, looked up)
peptide: DFDMLRCMLGRVYRPCWQV
modifications: disulfide 7-16 (inferred)
notes: mature; also called cold MCH; MCH unlabeled peptide
Take B1: the “increase in intracellular calcium levels (fura-2), EC50” value in assay [3] turned out to be 24 nM. The results for the concentration for half-maximal inhibition (IC50) with human MCH-2R [4] and in the assay with ferret MCH-2R [7] were 10 nM and 55 nM, respectively. Further, the “Function (EC50, nM), aequorin bioluminescence assay” value was found to be 69 nM in the assay with ferret MCH-2R [5] and 43 nM in the assay with human MCH-2R [6].

B2: [Phe^13, Tyr^19]-MCH (peptide)
chain: DFDMLRCMLGRVFRPCWQY
modifications: ends and bridges not checked; cysteine pairing not given here
Regarding B2, the “increase in intracellular calcium levels (fura-2), EC50” value in assay [3] stood at 49 nM. The molecule also yielded an IC50 in assay [8] of 3.8 nM.
